This is an account of results in doi:10.1101/2024.10.16.618570 (bioRxiv, 2024).

The data set deals with the molecule itself. The data set is described as follows: native gel or EMSA. For orientation: A gel shift assay detects complexes by their altered migration in electrophoresis.

B1: BAK (BCL-2 homologous antagonist/killer), endogenous in mouse liver mitochondria (natural protein, UniProt O08734 1-209, looked up)
chain: MASGQGPGPPKVGCDESPSPSEQQVAQDTEEVFRSYVFYLHQQEQETQGAAAPANPEMDNLPLEPNSILGQVGRQLALIGDDINRRYDTEFQNLLEQLQPTAGNAYELFTKIASSLFKSGISWGRVVALLGFGYRLALYVYQRGLTGFLGQVTCFLADIILHHYIARWIAQRGGWVAALNFRRDPILTVMVIFGVVLLGQFVVHRFFRS
As usually defined, the stoichiometry N is a count of units in the complex or per binding partner. In the case of B1, the “stoichiometry N” value worked out at 2.
